Experimental data reported in patent US20240309105A1 (Boehringer Ingelheim, published 2024).
Positions count from the first letter of the chain named.

Tests used:
[1] = target: T1, human CD40 on cells (human, UniProt P25942 21-277); test: cell-based or functional assay
[2] = target: T1, human CD40 on cells; test: binding to human B cells
[3] = target: T1, human CD40 on cells; test: FACS on B cells in whole blood of healthy subjects; 180 mg SC dose group, Day 64
[4] = target: T1, human CD40 on cells; test: FACS on B cells in whole blood of healthy subjects; 240 mg SC dose group, Day 78
[5] = target: T1, human CD40 on cells; test: FACS on B cells in whole blood of healthy subjects; after the fourth once-weekly SC dose, all doses, until Day 39
[6] = target: T1, human CD40 on cells; test: FACS on B cells in whole blood of healthy subjects, free CD40 detected with excess FITC-labeled antibody; 72 hours after a single 80 mg SC dose
[7] = target: T1, human CD40 on cells; test: FACS on B cells in whole blood of healthy subjects, free CD40 detected with excess FITC-labeled antibody; 72 hours after a single 120-240 mg SC dose
[8] = target: T1, human CD40 on cells; test: cell-based or functional assay; remark: listed apart in the source
[9] = target: T1, human CD40 on cells; test: cell-based or functional assay; remark: listed apart in the source
[10] = target: T1, human CD40 on cells; test: flow cytometry, human CD40-transfected HEK293 cells
[11] = target: T2, human CD40-Fc protein (human, UniProt P25942 21-193); test: ForteBio Octet, human CD40-Fc, with and without human serum
T2 construct: also called recombinant CD40 protein; not shown: Fc part
Description: Due to antibody and CD40-Fc bivalency avidity effects prevent Kds below 100 pM from being determined accurately. In addition, the binding to CD40-Fc was analyzed in the absence and presence of 50% human serum and no significant effect of serum on binding was observed (data not shown)

[12] = target: T1, human CD40 on cells; test: cell binding, flow cytometry (cell line not given)
Description: The specific binding of humanized antibodies to cellular CD40 was analyzed by flow cytometry using human CD40-transfected HEK293 cells. Concentration-dependent binding of Antibody A, Antibody B, and Antibody C was observed. […] No binding was detected on CD40 negative cells such as non-transfected HEK293 cells or the T cell line HSB-2 thus confirming selective binding to CD40 (data not shown).

[13] = target: T3, cynomolgus monkey CD40 on cells (cynomolgus monkey, UniProt G7PG38 21-278); test: ratio of binding EC50, human over cynomolgus; ratio > 1 means increased binding to Cyno compared to Human
T3 construct: whole, on cells; Cell surface CD40 on cynomolgus B cells and platelets; also called Cyno CD40; CD40 on cynomolgus monkey B cells and platelets

[14] = target: T1, human CD40 on cells; test: FITC-labeled antibody on Ramos cells

T2 sequence (P25942 21-193 limits assumed): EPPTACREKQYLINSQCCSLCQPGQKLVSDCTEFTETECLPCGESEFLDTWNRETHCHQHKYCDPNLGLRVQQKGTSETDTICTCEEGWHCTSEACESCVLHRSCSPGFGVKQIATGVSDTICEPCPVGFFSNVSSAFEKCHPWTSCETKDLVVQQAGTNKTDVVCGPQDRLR
T1 sequence (P25942 21-277): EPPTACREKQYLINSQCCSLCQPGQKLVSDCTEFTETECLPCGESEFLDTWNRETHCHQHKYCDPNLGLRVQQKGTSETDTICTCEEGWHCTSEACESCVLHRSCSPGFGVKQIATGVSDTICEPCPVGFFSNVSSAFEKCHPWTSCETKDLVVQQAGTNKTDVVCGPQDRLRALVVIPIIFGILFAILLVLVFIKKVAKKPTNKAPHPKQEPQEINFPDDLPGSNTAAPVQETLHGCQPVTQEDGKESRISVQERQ

In the case of “an antibody of the present invention (BI 655064)”, the inhibition of CD54 upregulation after the fourth once-weekly SC dose, all doses, up to Day 39 [1] is reported as > 90%, the inhibition of CD54 upregulation, 80 mg SC single dose, first post-dose measurement (72 hours) [1] is reported as 87% and the inhibition of CD54 upregulation, 80 mg SC, Day 7 post dose [1] is reported as 95%. For the same molecule, the inhibition of CD54 upregulation, 180 mg group, Day 64 [1] was 89%, the inhibition of CD54 upregulation, 240 mg group, Day 78 [1] was 51% and the inhibition of CD54 upregulation, all other doses (120-240 mg SC), from 72 hours onwards [1] was 95%. For the same molecule, the inhibition of CD54 upregulation, higher doses (120-240 mg SC), 72 hours after the first dose [1] was > 90%, the EC90 [2] was 6.85 nM and the CD40 receptor occupancy (RO) [3] was 79%. For the same molecule, the CD40 receptor occupancy (RO) [4] was 68%, the CD40 receptor occupancy (RO) [5] was > 90% and the CD40 receptor occupancy (RO) [6] was 89%. For the same molecule, the CD40 receptor occupancy (RO) [7] was 94 to 95%.

B1: 4D11 (Kirin/Astellas) anti-CD40 antibody (antibody, V domains shown)
VH: QLQLQESGPGLLKPSETLSLTCTVSGGSISSPGYYGGWIRQPPGKGLEWIGSIYKSGSTYHNPSLKSRVTISVDTSKNQFSLKLSSVTAADTAVYYCTRPVVRYFGWFDPWGQGTLVTVSS
VL: AIQLTQSPSSLSASVGDRVTITCRASQGISSALAWYQQKPGKAPKLLIYDASNLESGVPSRFSGSGSGTDFTLTISSLQPEDFATYYCQQFNSYPTFGQGTKVEIK
With B1 the “B cell proliferation assay, average IC50” value [8] was ~0.02 nM, the “B cell proliferation: Agonism (SI*)” value [9] was < 2 SI (Stimulation Index) and the EC50 [10] was ~1 nM. The Kd [11] was < 0.1 nM and the EC50 [12] was 0.9 nM.

B2: Antibody A (antibody, human IgG1, kappa, L234A L235A, V domains shown)
VH: EVQLVESGGGLVKPGGSLRLSCAASGFTFSDYGMHWVRQAPGKGLEWVAYISSGNRIIYYADTVKGRFTISRDNAKNSLYLQMNSLRAEDTALYYCARQDGYRYAMDYWAQGTLVTVSS
VL: DIVMTQSPDSLAVSLGERATMSCKSSQSLLNSGNQKNYLTWHQQKPGQPPKLLIYWTSTRESGVPDRFSGSGSGTDFTLTISSLQAEDVAVYYCQNDYTYPLTFGGGTKVEIKR
notes: also called humanized 20E2
With B2 the “B cell proliferation: Agonism (SI*)” value [9] was < 2 SI (Stimulation Index), the Kd [11] was < 0.1 nM and the EC50 [12] was 1.2 nM. The “Species cross-react.: Hu/Cyno Binding (EC50 ratios)” value [13] was 3 ratio.

B3: Antibody B (antibody, human IgG1, kappa, L234A L235A, V domains shown)
VH: B2 VH with L93V, A110G
VL: B2 VL with R18K, A19V, M21I, S22N
notes: also called humanized 20E2
In the case of B3, the “B cell proliferation: Agonism (SI*)” value [9] is reported as < 2 SI (Stimulation Index), the Kd [11] is reported as < 0.1 nM and the EC50 [12] is reported as 1.5 nM. For the same molecule, the “Species cross-react.: Hu/Cyno Binding (EC50 ratios)” value [13] was 2 ratio.

B4: Antibody C (antibody, human IgG1, kappa, L234A L235A, V domains shown)
VH: QVQLVQSGAEVKKPGASVKVSCTASGFNIKDYYVHWVKQAPGQGLEWMGRIDPEDGDSKYAPKFQGKATMTADTSTSTVYMELSSLRSEDTAVYYCTTSYYVGTYGYWGQGTLVTVSS
VL: DIQMTQSPSSLSASVGDRVTITCSASSSVSYMLWFQQKPGKAPKLLIYSTSNLASGVPSRFSGSGSGTDFTLTISSLQPEDFATYYCQQRTFYPYTFGGGTKVEIKR
notes: also called humanized 2H11
For B4, the “B cell proliferation: Agonism (SI*)” value [9] was < 2 SI (Stimulation Index), the Kd [11] was < 0.1 nM and the EC50 [12] was 1.7 nM. The “Species cross-react.: Hu/Cyno Binding (EC50 ratios)” value [13] was 1 ratio.

B5: 2H11 (antibody, V domains shown)
VH: EVQLQQSGAELVRPGASVKLSCTASGFNIKDYYVHWVKQRPEKGLEWIGRIDPEDGDSKYAPKFQGKATMTADTSSNTAYLHLSSLTSEDTAVYYCTTSYYVGTYGYWGQGTTLTVSS
VL: QIVLTQSPAIMSASPGEKVTITCSASSSVSYMLWFQQKPGTSPKLWIYSTSNLASGVPARFGGSGSGTSYSLTISRMEAEDAATYYCQQRTFYPYTFGGGTKLEIK
notes: Mouse monoclonal antibody; also called murine anti-CD40 mAb 2H11
B5: binds [14].
